US20060257938A1, “Method of screening for drugs that block ligand binding to a lipid binding protein” (priority 2005, published 2006)
Residue numbers refer to the chain shown, from its start.

B1: 38H, 72A (protein, listed as Rattus norvegicus)
chain: AFDGTWKVDRNENYEKFMEKMGINVVKRKLGAHDNLKHTITQEGNKFTVKESSNFRNIDVVFELGVDFAYSAADGTELTGTWTMEGNKLVGKFKRVDNGKELIAVREISGNELIQTYTYEGVEAKRIFKKE
modifications: PEPTIDE (1)...(131) wild-type rat intestinal fatty acid binding protein
B2: 38M 72G 117F (protein, listed as Rattus norvegicus)
chain: B1 chain with H38M, A72G, Y117F
modifications: PEPTIDE (1)...(131) wild-type rat intestinal fatty acid binding protein
B3: 106N, 72A (protein, listed as Rattus norvegicus)
chain: B1 chain with H38L, R106N
modifications: PEPTIDE (1)...(131) wild-type rat intestinal fatty acid binding protein
B4: 14I 72G 117V (protein, listed as Rattus norvegicus)
chain: B1 chain with Y14I, H38L, A72G, Y117V
modifications: PEPTIDE (1)...(131) wild-type rat intestinal fatty acid binding protein
B5: 106S, 72A (protein, listed as Rattus norvegicus)
chain: B1 chain with H38L, R106S
modifications: PEPTIDE (1)...(131) wild-type rat intestinal fatty acid binding protein
B6: 106A, 72A (protein, listed as Rattus norvegicus)
chain: B1 chain with H38L, R106A
modifications: PEPTIDE (1)...(131) wild-type rat intestinal fatty acid binding protein
B7: 106D, 72A (protein, listed as Rattus norvegicus)
chain: B1 chain with H38L, R106D
modifications: PEPTIDE (1)...(131) wild-type rat intestinal fatty acid binding protein
B8: 55L, 72A (protein, listed as Rattus norvegicus)
chain: B1 chain with H38L, F55L
modifications: PEPTIDE (1)...(131) wild-type rat intestinal fatty acid binding protein
B9: 23L, 72A (protein, listed as Rattus norvegicus)
chain: B1 chain with I23L, H38L
modifications: PEPTIDE (1)...(131) wild-type rat intestinal fatty acid binding protein
B10: 11I, 72A (protein, listed as Rattus norvegicus)
chain: B1 chain with N11I, H38L
modifications: PEPTIDE (1)...(131) wild-type rat intestinal fatty acid binding protein
B11: 14L 72A (protein, listed as Rattus norvegicus)
chain: B1 chain with Y14L, H38L
modifications: PEPTIDE (1)...(131) wild-type rat intestinal fatty acid binding protein
B12: 14I 38I 72V (protein, listed as Rattus norvegicus)
chain: B1 chain with Y14I, H38I, A72V
modifications: PEPTIDE (1)...(131) wild-type rat intestinal fatty acid binding protein
B13: 49N, 72A (protein, listed as Rattus norvegicus)
chain: B1 chain with H38L, V49N
modifications: PEPTIDE (1)...(131) wild-type rat intestinal fatty acid binding protein
B14: 106H, 72A (protein, listed as Rattus norvegicus)
chain: B1 chain with H38L, R106H
modifications: PEPTIDE (1)...(131) wild-type rat intestinal fatty acid binding protein
B15: 55Y, 72A (protein, listed as Rattus norvegicus)
chain: B1 chain with H38L, F55Y
modifications: PEPTIDE (1)...(131) wild-type rat intestinal fatty acid binding protein
B16: 11Y, 72A (protein, listed as Rattus norvegicus)
chain: B1 chain with N11Y, H38L
modifications: PEPTIDE (1)...(131) wild-type rat intestinal fatty acid binding protein
B17: 106I, 72A (protein, listed as Rattus norvegicus)
chain: B1 chain with H38L, R106I
modifications: PEPTIDE (1)...(131) wild-type rat intestinal fatty acid binding protein
B18: 106L, 72A (protein, listed as Rattus norvegicus)
chain: B1 chain with H38L, R106L
modifications: PEPTIDE (1)...(131) wild-type rat intestinal fatty acid binding protein
B19: 14L 72G 117V (protein, listed as Rattus norvegicus)
chain: B1 chain with Y14L, H38L, A72G, Y117V
modifications: PEPTIDE (1)...(131) wild-type rat intestinal fatty acid binding protein
B20: 106V, 72A (protein, listed as Rattus norvegicus)
chain: B1 chain with H38L, R106V
modifications: PEPTIDE (1)...(131) wild-type rat intestinal fatty acid binding protein
B21: 14L 38M 72A 117F (protein, listed as Rattus norvegicus)
chain: B1 chain with Y14L, H38M, Y117F
modifications: PEPTIDE (1)...(131) wild-type rat intestinal fatty acid binding protein
B22: 106T, 72A (protein, listed as Rattus norvegicus)
chain: B1 chain with H38L, R106T
modifications: PEPTIDE (1)...(131) wild-type rat intestinal fatty acid binding protein
B23: 14I 72A (protein, listed as Rattus norvegicus)
chain: B1 chain with Y14I, H38L
modifications: PEPTIDE (1)...(131) wild-type rat intestinal fatty acid binding protein

Assay: Probe fluorescence ratio response to arachidonic acid relative to ADIFAB2
Type: binding
Conditions: arachidonic acid; response relative to ADIFAB2
In short: (§1)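 Fluorescently labeled rat intestinal FABP variants were read at two emission wavelengths, near the unbound maximum (about 420 to 480 nm) and the FFA-bound maximum (about 495 to 580 nm). R = Fλ1/Fλ2 after subtracting probe-free intensity; ΔR = R+agent − R0, normalized to ADIFAB2 (rI-FABP-L72A).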
For B1, the “DR/DR AA” value was 0.998. In the case of B2, the “DR/DR AA” value is reported as 1.280. In the case of B3, the “DR/DR AA” value is reported as 0.384. In the case of B4, the “DR/DR AA” value is reported as 0.928. For B5, the “DR/DR AA” value was 0.321. For B6, the “DR/DR AA” value was 0.389. In the case of B7, the “DR/DR AA” value is reported as 0.502. For B8, the “DR/DR AA” value was 0.863. With B9 the “DR/DR AA” value was 1.174. For B10, the “DR/DR AA” value was 0.584. With B11 the “DR/DR AA” value was 0.838. For B12, the “DR/DR AA” value was 0.715. For B13, the “DR/DR AA” value was 1.255. For B14, the “DR/DR AA” value was 0.636. With B15 the “DR/DR AA” value was 0.471. With B16 the “DR/DR AA” value was 0.516. In the case of B17, the “DR/DR AA” value is reported as 0.481. In the case of B18, the “DR/DR AA” value is reported as 0.383. In the case of B19, the “DR/DR AA” value is reported as 0.873. For B20, the “DR/DR AA” value was 0.398. For B21, the “DR/DR AA” value was 0.861. In the case of B22, the “DR/DR AA” value is reported as 0.250. With B23 the “DR/DR AA” value was 0.825.

Assay: Probe fluorescence ratio response to linolenic acid relative to ADIFAB2
Type: binding
Conditions: response relative to ADIFAB2
In short: as §1
With B1 the “DR/DR LNA” value was 0.864. With B2 the “DR/DR LNA” value was 0.733. With B3 the “DR/DR LNA” value was 0.445. With B4 the “DR/DR LNA” value was 0.547. With B5 the “DR/DR LNA” value was 0.403. For B6, the “DR/DR LNA” value was 0.518. In the case of B7, the “DR/DR LNA” value is reported as 0.591. For B8, the “DR/DR LNA” value was 0.719. With B9 the “DR/DR LNA” value was 1.025. With B10 the “DR/DR LNA” value was 0.507. In the case of B11, the “DR/DR LNA” value is reported as 0.867. For B12, the “DR/DR LNA” value was 0.926. In the case of B13, the “DR/DR LNA” value is reported as 1.181. For B14, the “DR/DR LNA” value was 0.633. For B15, the “DR/DR LNA” value was 0.335. In the case of B16, the “DR/DR LNA” value is reported as 0.311. With B17 the “DR/DR LNA” value was 0.624. For B18, the “DR/DR LNA” value was 0.364. With B19 the “DR/DR LNA” value was 0.513. In the case of B20, the “DR/DR LNA” value is reported as 0.592. With B21 the “DR/DR LNA” value was 0.921. With B22 the “DR/DR LNA” value was 0.367. For B23, the “DR/DR LNA” value was 0.997.

Assay: Probe fluorescence ratio response to linoleic acid relative to ADIFAB2
Type: binding
Conditions: response relative to ADIFAB2
In short: as §1
For B1, the “DR/DR LA” value was 0.905. With B2 the “DR/DR LA” value was 0.748. For B3, the “DR/DR LA” value was 0.451. In the case of B4, the “DR/DR LA” value is reported as 0.622. For B5, the “DR/DR LA” value was 0.355. With B6 the “DR/DR LA” value was 0.515. With B7 the “DR/DR LA” value was 0.584. In the case of B8, the “DR/DR LA” value is reported as 0.706. In the case of B9, the “DR/DR LA” value is reported as 1.041. With B10 the “DR/DR LA” value was 0.546. In the case of B11, the “DR/DR LA” value is reported as 0.766. With B12 the “DR/DR LA” value was 0.862. With B13 the “DR/DR LA” value was 1.099. In the case of B14, the “DR/DR LA” value is reported as 0.669. With B15 the “DR/DR LA” value was 0.324. In the case of B16, the “DR/DR LA” value is reported as 0.330. For B17, the “DR/DR LA” value was 0.563. With B18 the “DR/DR LA” value was 0.382. In the case of B19, the “DR/DR LA” value is reported as 0.548. In the case of B20, the “DR/DR LA” value is reported as 0.574. For B21, the “DR/DR LA” value was 0.830. For B22, the “DR/DR LA” value was 0.246. In the case of B23, the “DR/DR LA” value is reported as 0.944.

Assay: Probe fluorescence ratio response to oleic acid relative to ADIFAB2
Type: binding
Conditions: response relative to ADIFAB2
In short: as §1
In the case of B1, the “DR/DR OA” value is reported as 0.955. With B2 the “DR/DR OA” value was 0.686. For B3, the “DR/DR OA” value was 0.496. For B4, the “DR/DR OA” value was 0.337. With B5 the “DR/DR OA” value was 0.478. For B6, the “DR/DR OA” value was 0.596. For B7, the “DR/DR OA” value was 0.423. With B8 the “DR/DR OA” value was 0.822. With B9 the “DR/DR OA” value was 1.057. For B10, the “DR/DR OA” value was 0.387. For B11, the “DR/DR OA” value was 0.446. In the case of B12, the “DR/DR OA” value is reported as 0.398. For B13, the “DR/DR OA” value was 1.108. With B14 the “DR/DR OA” value was 0.732. For B15, the “DR/DR OA” value was 0.329. With B16 the “DR/DR OA” value was 0.156. For B17, the “DR/DR OA” value was 0.661. With B18 the “DR/DR OA” value was 0.431. With B19 the “DR/DR OA” value was 0.297. For B20, the “DR/DR OA” value was 0.657. In the case of B21, the “DR/DR OA” value is reported as 0.458. For B22, the “DR/DR OA” value was 0.434. With B23 the “DR/DR OA” value was 0.478.

Assay: Probe fluorescence ratio response to palmitic acid relative to ADIFAB2
Type: binding
Conditions: response relative to ADIFAB2
In short: as §1
For B1, the “DR/DR PA” value was 0.624. For B2, the “DR/DR PA” value was 0.438. In the case of B3, the “DR/DR PA” value is reported as 0.152. With B4 the “DR/DR PA” value was 0.085. In the case of B5, the “DR/DR PA” value is reported as 0.149. For B6, the “DR/DR PA” value was 0.164. With B7 the “DR/DR PA” value was 0.147. In the case of B8, the “DR/DR PA” value is reported as 0.631. With B9 the “DR/DR PA” value was 0.928. In the case of B10, the “DR/DR PA” value is reported as 1.186. For B11, the “DR/DR PA” value was 0.534. With B12 the “DR/DR PA” value was 0.844. With B13 the “DR/DR PA” value was 0.740. For B14, the “DR/DR PA” value was 0.258. With B15 the “DR/DR PA” value was 0.249. In the case of B16, the “DR/DR PA” value is reported as 0.296. In the case of B17, the “DR/DR PA” value is reported as 0.223. For B18, the “DR/DR PA” value was 0.183. With B19 the “DR/DR PA” value was 0.055. For B20, the “DR/DR PA” value was 0.191. For B21, the “DR/DR PA” value was 0.472. For B22, the “DR/DR PA” value was 0.118. For B23, the “DR/DR PA” value was 0.762.
